Measurements reported in publication PMC2581521 (Developmental cell, 2008).

T1: Xenopus Chordin-Myc (Xenopus, UniProt Q91713 20-941)
T1 sequence (looked up): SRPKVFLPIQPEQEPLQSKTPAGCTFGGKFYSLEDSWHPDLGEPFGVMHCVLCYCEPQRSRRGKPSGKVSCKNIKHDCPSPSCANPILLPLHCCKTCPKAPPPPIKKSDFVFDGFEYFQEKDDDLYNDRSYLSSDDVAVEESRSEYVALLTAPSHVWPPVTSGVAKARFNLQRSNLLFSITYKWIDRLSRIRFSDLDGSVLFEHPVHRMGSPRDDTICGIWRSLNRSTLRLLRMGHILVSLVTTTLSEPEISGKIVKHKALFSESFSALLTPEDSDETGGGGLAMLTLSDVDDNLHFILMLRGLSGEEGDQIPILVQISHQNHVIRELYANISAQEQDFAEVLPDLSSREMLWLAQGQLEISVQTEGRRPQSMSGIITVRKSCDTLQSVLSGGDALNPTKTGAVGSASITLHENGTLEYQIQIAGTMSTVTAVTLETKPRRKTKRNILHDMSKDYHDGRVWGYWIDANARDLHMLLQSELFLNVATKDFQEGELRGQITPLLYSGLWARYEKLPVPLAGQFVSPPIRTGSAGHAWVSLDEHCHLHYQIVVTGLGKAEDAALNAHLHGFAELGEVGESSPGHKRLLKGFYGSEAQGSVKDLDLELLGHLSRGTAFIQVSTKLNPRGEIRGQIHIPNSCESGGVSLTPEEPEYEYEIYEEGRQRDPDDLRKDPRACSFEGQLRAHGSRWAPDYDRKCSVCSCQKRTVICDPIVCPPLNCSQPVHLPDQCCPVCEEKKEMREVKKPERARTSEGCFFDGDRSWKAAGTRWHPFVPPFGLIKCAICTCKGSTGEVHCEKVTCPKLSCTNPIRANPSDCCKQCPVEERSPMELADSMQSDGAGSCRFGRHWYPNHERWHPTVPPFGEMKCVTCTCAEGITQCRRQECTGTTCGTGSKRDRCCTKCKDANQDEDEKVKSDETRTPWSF

B1: Crossveinless-2 (recombinant mouse CV2) (natural protein)
chain: not shown
B2: Twisted gastrulation (recombinant mouse Tsg) (natural protein, UniProt Q9EP52 25-222, looked up)
chain: CNKALCASDVSKCLIQELCQCRPGEGNCPCCKECMLCLGALWDECCDCVGMCNPRNYSDTPPTSKSTVEELHEPIPSLFRALTEGDTQLNWNIVSFPVAEELSHHENLVSFLETVNQLHHQNVSVPSNNVHAPFPSDKERMCTVVYFDDCMSIHQCKISCESMGASKYRWFHNACCECIGPECIDYGSKTVKCMNCMF

Experiments:
Xenopus Chordin-Myc = target: T1, Xenopus Chordin-Myc; assay: cross-linking
[1] = target: B1; assay: co-IP
[2] = target: B2; assay: cross-linking

binding result (Xenopus Chordin-Myc) | binding result [1] | binding result [2] | Binder
binds |  |  | B1
 | binds |  | B2
binds |  | binds | Bone Morphogenetic Protein 4 (recombinant human BMP4) (ligand, UniProt P12644 293-408, looked up) SPKHHSQRARKKNKNCRRHSLYVDFSDVGWNDWIVAPPGYQAFYCHGDCPFPLADHLNSTNHAIVQTLVNSVNSSIPKACCVPTELSAISMLYLDEYDKVVLKNYQEMVVEGCGCR
